According to patent US20150166643A1 (Alexion, published 2015):

What was measured:
[1] = target: T1, human factor B (purified, Complement Technology A135) (human, UniProt P00751 26-764); experiment: SPR, factor B on surface, Fab flowed (summary table)
T1 construct: also called fB; human complement factor B
Text: (§1) Binding kinetics of TA106 Fab and variant S33A Fab (CLS016) were further characterized using Surface Plasmon Resonance (SPR) technology. In one exemplary experiment, both Fabs were captured on chips of a Biacore 3000 analyzer and samples of human factor B of different concentrations were flowed as the antigen over the surface to model soluble human factor B binding, using protocols recommended by the manufacturer and described previously in the instant disclosure. […] In another exemplary experiment, the affinities of both Fabs were also measured by reversing the orientation of the previous experiment. Specifically, human factor B was directly coupled to one flow cell of a CM5 chip. The second flow cell was used as a blank reference with no coupled ligand. CLS016 or TA106 Fab was then flowed on both flow cells. Concentrations between 0.19 to 25 nM were run with duplicates. The surface was regenerated between each cycle.

[2] = target: T1, human factor B (purified, Complement …); experiment: ELISA, plate coated with human factor B, anti-human kappa light chain HRP
Procedure: The binding activities of these mAbs towards factor B were analyzed by ELISA using standard protocols. In one exemplary experiment, MaxiSorp™ ELISA plates (Nunc, #439454, Rochester, N.Y.) were coated with 50 μL of human factor B (Complement Technology, A135, 1 mg/mL, lot 14c) at a concentration of 0.5 μg/mL in carbonate coating buffer (0.795 g carbonate+1.46 g bicarbonate+1 mL 1% NaN₃ (final concentration of 0.002%) in 500 mL water, pH 9.6 (lot 02 August 10)). Plates then were covered with plate sealers and incubated at 37±1° C. for one hour. Following coating, wells were emptied of reagent and washed in a BioTek® ELx405 plate washer (BioTek, Winooski, Vt.) for three times with 200 μL wash solution (PBS/0.05% Tween 20) per well. Following washes, wells were blocked with 100 μL of BSA (1% w/v) and incubated for one hour at room temperature. Wells were then washed again as described above. Fifty microliter samples (i.e., TA106 Fab, CLS011 mAb, CLS012 mAb, and CLS013 mAb) were then added to wells and incubated for one hour at room temperature. […] The plate was read on a Benchmark™ microplate reader (Bio-Rad Laboratories, Hercules, Calif.) at 450 nm. Standard curves were plotted with 4 parameter fit with DeltaSoft® 1.6 software, and sample concentrations were determined from the standard curves.

[3] = target: T1, human factor B (purified, Complement …); experiment: BLI (Octet), biotinylated factor B on streptavidin biosensor, Fab at 100 nM
Procedure: (§2) Binding kinetics of TA106 and TA106 S33A Fab (CLS016) to Factor B were analyzed using a FortéBio® Octet® biosensor (FortéBio, Inc.) in a similar protocol as described previously. In one exemplary experiment, Factor B (Complement Technology) was biotinylated at a 1:10 ratio and coupled to a streptavidin biosensor at a concentration of 5 μg/mL for a loading time of 600 seconds. Biosensors were briefly dipped in 1×KB as a wash for 30 seconds. Associations with a titration series of Fab with a concentration range from 100 to 3 nM (diluted in 1×KB) were carried out for 600 seconds. Fabs were dissociated from the biosensor by immersing the biosensor in 1×KB during the 600 second dissociation phase. As depicted in FIGS. 19 and 20, both TA106 Fab and TA106-derivative S33A Fab (CLS016) bound to Factor B at various concentrations, resulting in nearly identical association and dissociation profiles. Kinetic assessments using partial local fit parameters yielded identical values for KD/kₐ/Kd at each concentration tested.

[4] = target: T1, human factor B (purified, Complement …); experiment: BLI (Octet), biotinylated factor B on streptavidin biosensor, Fab at 3.13 nM
Procedure: as §2

[5] = target: T1, human factor B (purified, Complement …); experiment: SPR (Biacore), human factor B directly coupled to CM5 chip, Fab flowed at 0.19-25 nM
Text: as §1

[6] = target: T1, human factor B (purified, Complement …); experiment: SPR (Biacore), factor B bound directly to the chip, free TA106 Fab flowed; Chi2 0.901
Text: (§3) The difference in the two Biacore data sets could be explained as either that the conformation of factor B changes when binding to the surface or that not all commercial factor B is active. This later Biacore experiment (with a fixed concentration of factor B bound to the chip) removed the factor B concentration from the calculation.

[7] = target: T1, human factor B (purified, Complement …); experiment: SPR (Biacore), TA106 Fab captured on anti-Fab surface, soluble factor B flowed; Chi2 0.113
[8] = target: T1, human factor B (purified, Complement …); experiment: SPR (Biacore), factor B bound directly to the chip, free TA106 Fab flowed; Chi2 0.901 (the text rounds to 1.4 nM)
Text: as §3

[9] = target: T1, human factor B (purified, Complement …); experiment: SPR (Biacore), factor B coupled to the chip, free TA106 Fab 0.19-25 nM flowed; Chi2 1.58 (the text rounds to 1.2 nM)
Text: as §1

T1 sequence (P00751 26-764): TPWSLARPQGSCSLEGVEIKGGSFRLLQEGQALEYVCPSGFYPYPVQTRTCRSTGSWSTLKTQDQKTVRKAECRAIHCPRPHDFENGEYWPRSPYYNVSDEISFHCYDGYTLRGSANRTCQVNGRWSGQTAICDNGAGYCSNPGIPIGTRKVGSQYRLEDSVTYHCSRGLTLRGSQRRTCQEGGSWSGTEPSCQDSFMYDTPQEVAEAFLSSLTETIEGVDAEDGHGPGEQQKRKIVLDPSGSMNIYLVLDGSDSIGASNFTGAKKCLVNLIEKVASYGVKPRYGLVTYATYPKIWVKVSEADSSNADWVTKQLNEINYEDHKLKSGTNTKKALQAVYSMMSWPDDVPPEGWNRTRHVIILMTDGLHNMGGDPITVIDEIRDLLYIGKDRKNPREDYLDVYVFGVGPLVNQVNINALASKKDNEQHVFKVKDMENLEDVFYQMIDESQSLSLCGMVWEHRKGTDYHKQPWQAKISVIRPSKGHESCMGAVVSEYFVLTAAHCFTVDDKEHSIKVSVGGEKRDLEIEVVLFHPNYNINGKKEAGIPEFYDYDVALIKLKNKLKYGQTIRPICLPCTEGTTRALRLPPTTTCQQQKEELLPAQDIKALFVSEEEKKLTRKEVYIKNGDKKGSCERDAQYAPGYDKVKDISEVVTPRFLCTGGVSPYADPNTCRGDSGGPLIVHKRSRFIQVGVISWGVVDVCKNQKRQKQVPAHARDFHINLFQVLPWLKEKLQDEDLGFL

B1: TA106 Fab (humaneered anti-factor B Fab, expressed in E. coli) (Fab, V domains shown)
VH: QVQLVQSGAEVKKPGASVKVSCKASGYSFTDYYMTWVRQAPGQGLEWMGWINPNSGGTKYAQKFQGRVTMTRDTSISTAYMELSRLRSDDTAVYYCARGYYANSAWFAYWGQGTLVTVSS
VL: DIVMTQSPDSLAVSLGERATINCKSSQSLLNSSTSKNYLAWYQQKPGQPPKLLIYWASTRESGVPDRFSGSGSGTDFTLTISSLQAEDVAVYYCKQVYNLPWTFGQGTKLEIKR
notes: Fab made in E. coli by Xoma, not glycosylated; also called Fab TA106; TA106 wild type Fab
Kd [1]: 1.5 nM | EC50 [2]: 0.57 nM | Kd [3]: 13 nM | koff [3]: 0.00405 s⁻¹ | kon [3]: 312000 M⁻¹ s⁻¹ | Kd [4]: 32.3 nM | koff [4]: 0.00239 s⁻¹ | kon [4]: 74000 M⁻¹ s⁻¹ | Kd [5]: ~1.2 nM | koff [6]: 0.00305 s⁻¹ | kon [6]: 2.2e+06 M⁻¹ s⁻¹ | koff [7]: 0.0036 s⁻¹ | kon [7]: 118000 M⁻¹ s⁻¹ | Kd [8]: 1.39 nM | Kd [9]: 1.17 nM
